The record followed here is patent US20250144228A1 (published 2025).

The Kd is the concentration at which binding is half-saturated. Lower therefore signals higher affinity.

Assay [1] has as its target T1, P. falciparum MSP-1 subunit p42 (plate-bound, isolated) (Plasmodium falciparum, UniProt Q8I0U8 1327-1699).
T1 chain: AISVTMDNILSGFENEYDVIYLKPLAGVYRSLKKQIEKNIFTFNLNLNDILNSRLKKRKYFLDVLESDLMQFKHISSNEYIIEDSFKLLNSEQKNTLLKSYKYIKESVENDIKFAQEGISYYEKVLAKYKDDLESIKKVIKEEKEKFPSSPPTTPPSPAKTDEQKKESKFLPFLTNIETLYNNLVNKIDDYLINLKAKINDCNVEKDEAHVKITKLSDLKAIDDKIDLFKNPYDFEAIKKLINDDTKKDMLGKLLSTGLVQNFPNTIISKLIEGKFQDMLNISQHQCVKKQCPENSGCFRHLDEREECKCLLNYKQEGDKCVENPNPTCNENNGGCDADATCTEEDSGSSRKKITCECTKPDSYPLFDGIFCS
Briefly: ELISA. For orientation: In an ELISA, binding on a coated surface is turned into a signal by an enzyme label.

A further assay deals with T2, mouse polyclonal IgA (mouse, UniProt P11911).
T2 sequence (P11911 whole entry, looked up): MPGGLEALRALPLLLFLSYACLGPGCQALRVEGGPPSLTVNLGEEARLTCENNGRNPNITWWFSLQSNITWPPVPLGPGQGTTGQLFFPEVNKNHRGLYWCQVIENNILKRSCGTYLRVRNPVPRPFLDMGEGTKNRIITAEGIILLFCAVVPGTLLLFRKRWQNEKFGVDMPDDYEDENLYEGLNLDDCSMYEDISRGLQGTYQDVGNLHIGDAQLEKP
Briefly: ELISA.

The target in a further assay is mouse polyclonal IgG (mouse). The experiment in a line: ELISA.
In assay [2] the target is a monoclonal mouse IgM, κ Isotype Ctrl (mouse). Briefly: ELISA.
The target in another assay is mouse IgG2b (mouse). The experiment in a line: ELISA.
Assay [3] deals with T3, P. falciparum MSP-1 subunit p83 (plate-bound, isolated) (Plasmodium falciparum, UniProt Q8I0U8 20-722).
T3 chain: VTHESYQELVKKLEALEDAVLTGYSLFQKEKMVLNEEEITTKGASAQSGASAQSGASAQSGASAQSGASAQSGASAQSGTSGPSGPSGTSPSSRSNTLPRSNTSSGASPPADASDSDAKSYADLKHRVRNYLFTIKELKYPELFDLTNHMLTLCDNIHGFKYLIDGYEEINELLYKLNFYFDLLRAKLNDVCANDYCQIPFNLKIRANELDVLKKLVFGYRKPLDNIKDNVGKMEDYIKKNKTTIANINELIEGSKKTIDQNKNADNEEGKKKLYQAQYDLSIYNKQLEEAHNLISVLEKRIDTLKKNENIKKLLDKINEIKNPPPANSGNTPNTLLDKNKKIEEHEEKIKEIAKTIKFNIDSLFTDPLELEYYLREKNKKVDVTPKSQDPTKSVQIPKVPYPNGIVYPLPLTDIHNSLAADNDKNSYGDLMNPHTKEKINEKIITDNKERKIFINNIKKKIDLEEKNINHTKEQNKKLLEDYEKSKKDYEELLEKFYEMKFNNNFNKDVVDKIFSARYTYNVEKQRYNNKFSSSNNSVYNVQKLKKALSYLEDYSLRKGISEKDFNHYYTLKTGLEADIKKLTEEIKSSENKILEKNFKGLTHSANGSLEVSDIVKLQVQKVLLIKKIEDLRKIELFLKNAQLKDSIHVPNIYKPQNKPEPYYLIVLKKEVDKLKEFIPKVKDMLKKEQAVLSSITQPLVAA
Briefly: ELISA.

For assay [4], the target named is A/Wisconsin/629-D00015/2009 (H1N1)pdm09 (influenza A virus).
Assay [5] has as its target A/Hong Kong/8/1968 (H3N2) (influenza A virus).
Another assay deals with hemagglutinin (influenza A virus).
The target in assay [6] is Influenza A virus - A/Hong Kong/8/1968 (H3N2) (influenza A virus).

B1: anti-p42 A6 VHH (P. falciparum MSP-1 specific) (VHH)
VHH: QVQLVESGGGLVQAGGSLRLSCAASARTFSYYGAAWFRQAPGKEREFVAAVSWNGDDTYYADSVKGRFTISRDNTKNTVSLQMNALKPEDTAVYYCEAAAYGRDWRQSANYVYWGQGTQVTVSS
Consider B1, for which, in [1], the Kd came to 1.96 nM.

B2: anti-p42 G11 VHH (P. falciparum MSP-1 specific) (VHH)
VHH: QVQLVETGGGLVQAGGSLRLSCVVSGRSLILYGMGWFRQAPGKEREFVAGIVWNGGWTYYADSVKGRFTISRDTAKNTVYLQMNSLKPEDTAVYSCAAGPGDGRRRVAPAEYNYWGQGTQVTVSS
Take B2: the Kd in assay [1] worked out at 0.52 nM.

B3: VHHkappa (mouse)-biotin (VHH)
VHH: QVQLVESGGGWVQPGGSLRLSCAASGFTFSDTAMMWVRQAPGKGREWVAAIDTGGGYTYYADSVKGRFTISRDNAKNTLYLQMNSLKPEDTARYYCAKTYSGNYYSNYTVANYGTTGRGTLVTVSS
For B3, the values for the Kd (with mouse polyclonal IgA; with mouse polyclonal IgG; in assay [2]) were 0.508 nM, 7.2 pM and 0.0112 nM, respectively.

B4: VHHkappa-biotin (VHH)
VHH: QVQLVESGGGWVQPGGSLRLSCAASGFTFSDTAMMWVRQAPGKGREWVAAIDTGGGYTYYADSVKGRFTISRDNAKNTLYLQMNSLKPEDTARYYCAKTYSGNYYSNYTVANYGTTGRGTLVTVSS
B4: the Kd in the assay with mouse IgG2b was determined as 2.1 nM.

B5: anti-p83 B4 VHH (P. falciparum MSP-1 specific) (VHH)
VHH: QLQLVESGGGLAQAGGSLRLSCAASGRTSSTKPMGWFRQAPGLEREFVASISWLGGSTLYSDSVKGRFTISRDNAKNTVYLQMNSLKSEDTAVYYCAGGTSAYSGRDSSRYEYWGQGTQVTVSS
As to B5, the Kd in assay [3] is 1.81 nM.

B6: SD36-biotin (VHH)
VHH: EVQLVESGGGLVQAGGSLKLSCAASGRTYAMGWFRQAPGKEREFVAHINALGTRTYYSDSVKGRFTISRDNAKNTEYLEMNNLKPEDTAVYYCTAQGQWRAAPVAVAAEYEFWGQGTQVTVSS
Take B6: the Kd worked out at 18.7 nM in assay [4] and 1.3 nM in assay [5].

B7: VHHkappa-SD36 (bispecific antibody, V domains shown)
V domain 1: QVQLVESGGGWVQPGGSLRLSCAASGFTFSDTAMMWVRQAPGKGREWVAAIDTGGGYTYYADSVKGRFTISRDNAKNTLYLQMNSLKPEDTARYYCAKTYSGNYYSNYTVANYGTTGRGTLVTVSS
V domain 2: EVQLVESGGGLVQAGGSLKLSCAASGRTYAMGWFRQAPGKEREFVAHINALGTRTYYSDSVKGRFTISRDNAKNTEYLEMNNLKPEDTAVYYCTAQGQWRAAPVAVAAEYEFWGQGTQVTVSS
B7: the Kd with hemagglutinin is 15.5 nM; in assay [6] it was 0.6 nM.

B8: VHHkappa-SD36-biotin-1 (bispecific antibody, V domains shown)
V domain 1: QVQLVESGGGWVQPGGSLRLSCAASGFTFSDTAMMWVRQAPGKGREWVAAIDTGGGYTYYADSVKGRFTISRDNAKNTLYLQMNSLKPEDTARYYCAKTYSGNYYSNYTVANYGTTGRGTLVTVSS
V domain 2: EVQLVESGGGLVQAGGSLKLSCAASGRTYAMGWFRQAPGKEREFVAHINALGTRTYYSDSVKGRFTISRDNAKNTEYLEMNNLKPEDTAVYYCTAQGQWRAAPVAVAAEYEFWGQGTQVTVSS
Take B8: the Kd with mouse IgG2b was 2 nM.

B9: VHHkappa-SD36-biotin-2 (bispecific antibody, V domains shown)
V domain 1: QVQLVESGGGWVQPGGSLRLSCAASGFTFSDTAMMWVRQAPGKGREWVAAIDTGGGYTYYADSVKGRFTISRDNAKNTLYLQMNSLKPEDTARYYCAKTYSGNYYSNYTVANYGTTGRGTLVTVSS
V domain 2: EVQLVESGGGLVQAGGSLKLSCAASGRTYAMGWFRQAPGKEREFVAHINALGTRTYYSDSVKGRFTISRDNAKNTEYLEMNNLKPEDTAVYYCTAQGQWRAAPVAVAAEYEFWGQGTQVTVSS
Consider B9, for which, in the assay with mouse IgG2b, the Kd is 2.4 nM.

B10: VHHkappa-SD36-biotin (genetic fusion) (bispecific antibody)
chain: QVQLVESGGGWVQPGGSLRLSCAASGFTFSDTAMMWVRQAPGKGREWVAAIDTGGGYTYYADSVKGRFTISRDNAKNTLYLQMNSLKPEDTARYYCAKTYSGNYYSNYTVANYGTTGRGTLVTVSSAAAGGGGSGGGGSGGGGSEVQLVESGGGLVQAGGSLKLSCAASGRTYAMGWFRQAPGKEREFVAHINALGTRTYYSDSVKGRFTISRDNAKNTEYLEMNNLKPEDTAVYYCTAQGQWRAAPVAVAAEYEFWGQGTQVTVSSGGLPETGGHHHHHH
Take B10: the Kd was determined as 59.7 nM in [4] and 1.8 nM in assay [5].

B11: VHHkappa (mouse)-SD36-biotin (bispecific antibody)
chain: QVQLVESGGGWVQPGGSLRLSCAASGFTFSDTAMMWVRQAPGKGREWVAAIDTGGGYTYYADSVKGRFTISRDNAKNTLYLQMNSLKPEDTARYYCAKTYSGNYYSNYTVANYGTTGRGTLVTVSSAAAGGGGSGGGGSGGGGSEVQLVESGGGLVQAGGSLKLSCAASGRTYAMGWFRQAPGKEREFVAHINALGTRTYYSDSVKGRFTISRDNAKNTEYLEMNNLKPEDTAVYYCTAQGQWRAAPVAVAAEYEFWGQGTQVTVSSGGLPETGGHHHHHH
Consider B11, for which the Kd in the assay with mouse polyclonal IgA worked out at 0.434 nM; with mouse polyclonal IgG, 8.3 pM; in assay [2] it was 0.0102 nM.
